In patent US8642284B1, “Methods for identifying agents that alter NAD-dependent deacetylation activity of a SIR2 protein” (Massachusetts Institute of Technology, priority 1999, dated 2014) one finds Km data, which are given here for 1 substance.

This series has as its system NC(=O)c1ccc[n+]([C@@H]2O[C@H](COP(=O)([O-])OP(=O)(O)OC[C@H]3O[C@@H](n4cnc5c(N)ncnc54)[C@H](O)[C@@H]3O)[C@@H](O)[C@H]2O)c1. The series is described as follows: NAD-dependent deacetylation of di-acetylated H3 peptide by recombinant yeast Sir2p (HPLC). The format is biochemical. Particulars: other: reaction about 50% of maximal level; pH 9.0. The protocol: The typical reaction of Sir2 deacetylase activity was performed in 50 μl of buffer containing 50 mM Tris-HCl [pH 9.0], 4 mM MgCl2, 0.2 mM DTT, variable concentration of cold nicotinamide adenine dinucleotide (NAD) or NAD derivatives (SIGMA®, MO), 5-10 μg of the purified recombinant Sir2 proteins, and 10 μg of the histone H3 N-terminal tail peptide (amino acid 1-20) di-acetylated at positions 9 and 14 (Upstate Biotechnology™, NY). […] To detect the ADP-ribosylation activity, 8 μCi of NAD 5′-[α-^32P]triphosphate (˜1000 Ci/mmol, Amersham Pharmacia Biotech™, NJ) was added to the same reaction containing 1 μM cold NAD. Histone H3 protein (4 μg) (Roche Molecular Biochemicals™, IN) were used for this assay. All reaction mixtures were incubated at room temperature for 1 hr. Trichostatin A and coumermycin A1 (SIGMA™) were prepared in dimethylsulfoxide (DMSO, SIGMA®), and 5 μl of solvent or inhibitor was added to the reactions prior to adding Sir2 proteins.
After the incubation, the products were precipitated at −20° C. overnight by adding 50 μl of distilled water and 25 μl of 100% trichloroacetic acid (TCA) solution. […] The chromatograms at the absorbance of 210 nm were digitally recorded and analyzed by Hewlett Packard ChemStation™ system (version A.06.03 [509]). […] PTH amino acid chromatograms were recorded and analyzed by the ABI Model 610A2.1 data integration/analysis system. […]

The term Km denotes the concentration of substrate that gives half-maximal velocity. Turning to Sir2p (Saccharomyces cerevisiae S288C), the Km amounted to 100 µM.
